From US20050085416A1, “Biologically active complex” (priority 2002, published 2005)
Values joined by “and” are separate entries in the source; they are usually repeats but may differ in a detail not shown here. Equal values may be shown once. “Also recorded” adds a separate entry of the source. Read-outs that look alike come from different tables or passages of the source.

Columns and labels:
[1] = cited from earlier work; for calcium binding: point mutants of bovine α-lactalbumin
L1210 leukaemia cells [2] = assay: Apoptosis bioassay: L1210 cell viability by Trypan blue exclusion; format: cell-based, mouse; conditions: for loss of cell viability: L1210, 0.3 mg/ml; for LD50: L1210 cells; for apoptosis induction / biological activity: apoptosis assay
Description: The different agonists were dissolved in cell culture medium, without fetal calf serum, and added to the cells (final volume 1 ml per well). Plates were incubated at 37° C. in 5% CO2 atmosphere and 100 μl of fetal calf serum was added to each well after 30 minutes. Cell culture medium served as a control.
Cell viability was determined by Trypan blue exclusion after six hours of incubation. For analysis, 30 μl of the cell suspension was mixed with 30 μl of a 0.2% trypan blue solution and the number of stained cells (dead cells) per 100 cells was determined by interference contrast microscopy (Ortolux II, Leitz Wetzlar, Germany).

L1210 leukaemia cells [3] = assay: DNA fragmentation (oligonucleosome length fragments, agarose gel) in L1210 cells; format: cell-based, mouse; conditions: L1210, six hours
Description: Oligonucleosome length DNA fragments were detected by agarose gel electrophoresis. The cell suspension remaining after trypan blue (970 μl, 2×10^6/ml) was lysed in 5 mM Tris, 20 mM EDTA, 0.5% Triton X-100 pH 8.0 at 4° C. for 1 hour and centrifuged at 13,000×g for 15 minutes. DNA was ethanol precipitated over night in −20° C., treated with proteinase K and RNAse, loaded on 1.8% agarose gels and electrophoresed with constant voltage set at 50V over night. DNA fragments were visualised with ethidium bromide using a 305 nm UV-light source and photographed using Polaroid type 55 positive-negative film.

[4] = Ca2+ titration in the presence of chromophoric chelator quin 2; format: binding; conditions: for Ca2+ binding: quin 2 titration; for Ka, calcium association constant: 2 mM Tris/HCl, chelator quin 2; for Kd: read-out: KD, calcium
Text: To study the Ca^2+ binding equilibrium, the proteins listed in table 1 including the D87A BAMLET obtained as described in Example 7, and HAMLET, was titrated with calcium in the presence of a chromophoric chelator, quin 2, for which the absorbance at 263 nm decreases (approx. 85%) upon Ca^2+-binding. The method relies on competition for calcium between the protein and chelator, and can be used to quantitate high affinity sites (ca. 10^7-5·10^9 M^−1 at low salt, and ca. 5 10^5-1·10^8 M^−1 at 0.15 NaCl) when quin 2 is the chelator. The exact concentration of the chelator solution (in the range of 25-30 μM) was calculated from the absorbance at 239.5 nm in the presence of excess calcium (using ε239.5=4.2×10^4 L mol^−1 cm^−1 for quin 2). Lyophilised protein was dissolved in calcium free (<1 μM Ca^2+) chelator solution at a concentration of 25-30 μM. The absorbance at 263 nm (A263) was recorded for the protein/chelator solution using a UV/Vis 920 spectrophotometer (GBC Scientific Equipment Pty Ltd, Victoria, Australia). Calcium solution (3 mM CaCl2 in 2 mM Tris/HCl, pH 7.5, with or without 0.15 M NaCl) was added in portions of 4 μl. A263 was recorded after each calcium addition.
A more concentrated Ca^2+ stock (10 mM) was used at the end of the titrations of the proteins in 0.15 M NaCl. The data was analysed by least squares fitting directly to the measured quantity, absorbance versus total calcium concentration, using the CaLigator software (Andre and Linse, 2002).

[5] = Spectroscopy (near UV CD, fluorescence, ANS) after addition of excess calcium; format: binding; conditions: excess calcium (1 mM), no spectral changes
Description: The products were then subjected to spectroscopic analysis. The proteins or protein fractions were dialyzed against doubly distilled water and lyophilised. Stock solutions were prepared by dissolving the lyophilised material in 10 mM potassium phosphate buffer at pH 7.5, and concentrations determined as the absorbance at 280 nm (A/l=C (mg/ml) where 1 mg/ml of α-lactalbumin is 70 μM). The spectra were recorded at the appropriate dilution.
Circular Dichroism (CD) spectra were obtained on a JASCO J-720 spectro-polarimeter with a JASCO PTC-343 Peltier type thermostated cell holder. Quartz cuvettes were used with 1 cm path length and spectra were recorded at 25° C. between 240 and 320 nm. […] Six scans were recorded and averaged for each spectrum. Baseline spectra were recorded with pure buffer in the cuvette and substracted from the protein spectra.
Fluorescence spectra were recorded at 25° C. on a Perkin Elmer LS-50B spectrometer using a quartz cuvette with 1 cm excitation path length. Intrinsic (tryptophan) fluorescence emission spectra were recorded between 305 and 530 nm (step 1 nm) with excitation at 295 nm. […] ANS fluorescence emission spectra were recorded at 25° C. on a Perkin Elmer LS-50B spectrometer using a quartz cuvette with 1 cm excitation path length, between 400 and 600 nm (step 1 nm) with excitation at 385 nm. […]

[6] = 5 mM Tris, 0.1 mM EDTA, pH 7.2, 298 K, CD 270 nm
[7] = 10 mM Tris/HCl, no salt, pH 7.5, 298 K, ITC
[8] = L1210, six hours, 0.3 mg/ml, reduced from 99%
[9] = L1210, 6 hours' exposure, 0.5 mg/ml, from 98%

α-lac bovine: bovine α-lactalbumin
Ka [1, 6]: 2.5e+08 M⁻¹
Ka [1, 7]: 4.3e+08 M⁻¹
Ka ([1]; 10 mM Tris/HCl, pH 8, DSC): 2.85e+08 M⁻¹
Ka ([1]; 10 mM ammonium bicarbonate, pH 7.8, EGTA, fluorescence): 4.8e+07 M⁻¹
Ka ([1]; 20 mM Tris, pH 7.5, 298 K, fluorescence, Hummel & Dryer method): 2.7e+06 M⁻¹
Ka ([1]; 20 mM Tris, pH 7.5, 298 K, microcalorimetry): 2.5e+06 M⁻¹
Ka ([1]; 50 mM Hepes, pH 8, 293 K, fluorescence): 4e+08 M⁻¹
Ka ([1]; 50 mM Hepes, pH 8, 310 K, fluorescence): 2e+07 M⁻¹
Ka ([1]; H2O, 100 mM KCl, pH 7, 294 K, EDTA, 43Ca-NMR): 2e+07 M⁻¹
Ka ([1]; H2O, 100 mM KCl, pH 8, 294-298 K, EGTA 13C-NMR): 2e+07 M⁻¹

BAMLET
loss of cell viability (L1210 leukaemia cells [2]): equally sensitive
cell viability (L1210 leukaemia cells [2]; L1210, 6 hours' exposure, reduced from 98%, concentration not given): 4%
cell viability (L1210 leukaemia cells [2]; [8]): 12%
LD50 (L1210 leukaemia cells [2]): 0.2 mg/mL
DNA fragmentation (L1210 leukaemia cells [3]): stimulated the formation of the characteristic DNA ladder; also recorded: induces DNA fragmentation
Ca2+ binding [4]: shown to bind Ca^2+

B1: D87A: bovine α-lactalbumin with aspartic acid at position 87 substituted by alanine (protein, UniProt P00711 20-142, looked up, variant D87A)
Alpha-lactalbumin: EQLTKCEVFRELKDLKGYGGVSLPEWVCTTFHTSGYDTQAIVQNNDSTEYGLFQINNKIWCKDDQNPHSSNICNISCDKFLDDDLTADIMCVKKILDKVGINYWLAHKALCSEKLDQWLCEKL
calcium binding [1]: totally abolished calcium binding
apoptosis induction / biological activity (L1210 leukaemia cells [2]): biologically inactive
calcium binding [5]: did not bind calcium

B2: D87N: bovine α-lactalbumin with aspartic acid at position 87 substituted by asparagine (protein, UniProt P00711 20-142, looked up, variant D87N)
Alpha-lactalbumin: EQLTKCEVFRELKDLKGYGGVSLPEWVCTTFHTSGYDTQAIVQNNDSTEYGLFQINNKIWCKDDQNPHSSNICNISCDKFLDDDLTNDIMCVKKILDKVGINYWLAHKALCSEKLDQWLCEKL
calcium binding [1]: still bound calcium but with lower affinity
apoptosis induction / biological activity (L1210 leukaemia cells [2]): biologically inactive

B3: αlac goat: goat α-lactalbumin (protein, UniProt P00712 20-142, looked up)
Alpha-lactalbumin: EQLTKCEVFQKLKDLKDYGGVSLPEWVCTAFHTSGYDTQAIVQNNDSTEYGLFQINNKIWCKDDQNPHSRNICNISCDKFLDDDLTDDIVCAKKILDKVGINYWLAHKALCSEKLDQWLCEKL
Ka [1, 6]: 2.8e+08 M⁻¹
Ka [1, 7]: 5.7e+08 M⁻¹

B4: D87A-BAMLET: protein-lipid complex of D87A mutant bovine α-lactalbumin eluted from C18:1 conditioned column (protein, UniProt P00711 20-142, looked up, variant D87A)
Alpha-lactalbumin: EQLTKCEVFRELKDLKGYGGVSLPEWVCTTFHTSGYDTQAIVQNNDSTEYGLFQINNKIWCKDDQNPHSSNICNISCDKFLDDDLTADIMCVKKILDKVGINYWLAHKALCSEKLDQWLCEKL
modifications: complex with C18:1 fatty acid
notes: protein-lipid complex of D87A mutant bovine α-lactalbumin eluted from C18:1 conditioned column
cell viability (L1210 leukaemia cells [2]; [9]): 13%
LD50 (L1210 leukaemia cells [2]): 0.4 mg/mL
DNA fragmentation (L1210 leukaemia cells [3]): induced DNA fragmentation similar to the BAMLET control
Ca2+ binding [4]: no difference compared to the titration of quin 2 alone; also recorded: does not bind Ca^2+

B5: D87N-BAMLET: protein-lipid complex of D87N mutant bovine α-lactalbumin eluted from C18:1 conditioned column (protein, UniProt P00711 20-142, looked up, variant D87N)
Alpha-lactalbumin: EQLTKCEVFRELKDLKGYGGVSLPEWVCTTFHTSGYDTQAIVQNNDSTEYGLFQINNKIWCKDDQNPHSSNICNISCDKFLDDDLTNDIMCVKKILDKVGINYWLAHKALCSEKLDQWLCEKL
modifications: complex with C18:1 fatty acid
notes: protein-lipid complex of D87N mutant bovine α-lactalbumin eluted from C18:1 conditioned column
cell viability (L1210 leukaemia cells [2]; [9]): 17%
LD50 (L1210 leukaemia cells [2]): 0.4 mg/mL
DNA fragmentation (L1210 leukaemia cells [3]): induced DNA fragmentation similar to the BAMLET control

B6: HAMLET (protein, UniProt P00709 20-142, looked up)
Alpha-lactalbumin: KQFTKCELSQLLKDIDGYGGIALPELICTMFHTSGYDTQAIVENNESTEYGLFQISNKLWCKSSQVPQSRNICDISCDKFLDDDITDDIMCAKKILDIKGIDYWLAHKALCTEKLEQWLCEKL
modifications: complex with oleic acid
loss of cell viability (L1210 leukaemia cells [2]): died rapidly
apoptosis induction (L1210 leukaemia cells [2]; L1210, HAMLET 0.3 mg (0.3 mg/ml)): induced apoptosis; also recorded: sufficient to kill the cells by apoptosis
cell viability (L1210 leukaemia cells [2]; [8]): 0%
LD50 (L1210 leukaemia cells [2]): 0.2 mg/mL
apoptosis induction / biological activity (L1210 leukaemia cells [2]): cause apoptosis
DNA fragmentation (L1210 leukaemia cells [3]): DNA fragmentation was induced
DNA fragmentation (L1210 leukaemia cells [3]; listed as C18:1:9cis complex): DNA fragmentation was observed
Ka, calcium association constant ([4]; 150 mM NaCl (physiological salt)): 5.3.10^6 M^−1 and 5.3 · 10^6 M^−1
Ka, calcium association constant ([4]; low salt (no added salt)): 5.9e+09 M⁻¹ and 5.9e+08 M⁻¹
Kd ([4]; low salt): 1.7 nM
calcium affinity, times lower than α-lactalbumin ([4]; no salt added): 3 times
calcium affinity, times lower than α-lactalbumin ([4]; physiological salt concentration): 1.6 times
Kd ([4]; physiological salt, 0.15 M NaCl): 190 nM
Ca2+ binding [4]: shown to bind Ca^2+

B7: C18:1:11cis complex: complex of apo-α-lactalbumin with C18:1:11cis fatty acid eluted after 1M NaCl (protein, UniProt P00709 20-142, looked up)
Alpha-lactalbumin: KQFTKCELSQLLKDIDGYGGIALPELICTMFHTSGYDTQAIVENNESTEYGLFQISNKLWCKSSQVPQSRNICDISCDKFLDDDITDDIMCAKKILDIKGIDYWLAHKALCTEKLEQWLCEKL
modifications: complex with C18:1:11cis fatty acid
notes: complex of apo-α-lactalbumin with C18:1:11cis fatty acid eluted after 1M NaCl
cell viability (L1210 leukaemia cells [2]; [8]): 0%
apoptosis induction / biological activity (L1210 leukaemia cells [2]): cause apoptosis
DNA fragmentation (L1210 leukaemia cells [3]): DNA fragmentation was observed
